# Data reported in US20220227882A1 (TRUSTEES OF TUFTS COLLEGE, published 2022).
# T1: Recombinant human ADAM8 (rHuADAM8) ectodomain protein (aa 17-497), ACRO Biosystems AD8-H5223 (human, UniProt P78325 17-497)
# T1 construct: Bought protein made in HEK293 cells; The protein clips off its own prodomain (aa 17-191); also called rhADAM8; immunogen
# T1 sequence: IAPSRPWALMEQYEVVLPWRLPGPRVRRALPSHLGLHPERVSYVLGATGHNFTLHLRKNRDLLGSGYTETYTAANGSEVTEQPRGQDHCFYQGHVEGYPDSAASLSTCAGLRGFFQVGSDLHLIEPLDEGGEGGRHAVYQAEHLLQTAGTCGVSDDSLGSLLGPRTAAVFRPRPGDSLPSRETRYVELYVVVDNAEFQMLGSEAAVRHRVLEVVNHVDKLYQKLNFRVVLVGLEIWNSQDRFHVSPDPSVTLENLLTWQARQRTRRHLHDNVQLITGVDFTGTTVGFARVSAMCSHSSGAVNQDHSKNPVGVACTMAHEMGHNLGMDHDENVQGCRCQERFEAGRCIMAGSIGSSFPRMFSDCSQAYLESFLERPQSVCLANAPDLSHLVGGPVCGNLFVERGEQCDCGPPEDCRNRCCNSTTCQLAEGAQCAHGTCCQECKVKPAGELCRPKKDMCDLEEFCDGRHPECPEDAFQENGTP
# T2: Recombinant human ADAM15 (Sino Biological, 10517-H08H) (human, UniProt Q13444 18-696)
# T2 sequence (looked up): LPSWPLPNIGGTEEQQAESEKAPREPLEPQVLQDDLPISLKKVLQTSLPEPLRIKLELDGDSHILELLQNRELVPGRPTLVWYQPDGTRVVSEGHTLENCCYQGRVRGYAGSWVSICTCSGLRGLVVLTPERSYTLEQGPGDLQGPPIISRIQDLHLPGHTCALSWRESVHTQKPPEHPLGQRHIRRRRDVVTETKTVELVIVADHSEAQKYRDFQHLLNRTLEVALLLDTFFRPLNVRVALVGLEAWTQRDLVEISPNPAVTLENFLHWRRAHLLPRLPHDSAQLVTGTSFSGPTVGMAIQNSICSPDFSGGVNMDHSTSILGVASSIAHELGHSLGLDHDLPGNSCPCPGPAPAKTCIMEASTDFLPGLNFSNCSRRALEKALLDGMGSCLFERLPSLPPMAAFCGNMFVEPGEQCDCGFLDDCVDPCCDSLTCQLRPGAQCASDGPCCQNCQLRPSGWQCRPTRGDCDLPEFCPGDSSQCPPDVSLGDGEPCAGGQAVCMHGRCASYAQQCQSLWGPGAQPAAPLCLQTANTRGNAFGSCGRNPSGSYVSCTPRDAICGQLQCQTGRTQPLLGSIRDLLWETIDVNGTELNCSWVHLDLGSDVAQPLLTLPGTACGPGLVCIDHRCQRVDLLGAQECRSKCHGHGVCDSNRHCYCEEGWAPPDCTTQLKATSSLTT
# B1: ADP13 (antibody, IgG1, V domains shown)
# VH: EVQLQQSGPEMVKPGTSVKISCKASGYTFTDYYINWVKQSHGKSLEWIGDISPNIGGATYNPKFKGKAILTVDKSARTAYMELRSLTSEDSAVYCCTRGGSSYPYFYAMDYWGQGTSVTVSS
# VL: DIVMSQSPSSLAVSVGEKVTMSCKSSQSLLYSSNQKKYLAWYQQKPGQSPKLLIYWASTRESGVPDRFTGSGSGTDFTLTISSVKAEDLAVYYCQQFYSYPYTFGGGTKLEINR
# notes: also called mADP13; mouse ADP13
# B2: ADP3 (antibody, IgG1, V domains shown)
# VH: EVKLEESGGGLVQPGGSMKLSCAASGFTFSDAWMDWVRQSPEKGLEWVAEIRGKVNNLATYYVESVKGRFTISRDDSKSSVYLQMNSLRAEDTGIYYCLGRYDATYAMDYWGQGTSVTVSS
# VL: DVVMTQTPLSLPVSLGDQASISCRSSQSLVHSDGNTYLHWYLQKPGQSPKLLIYKLSNRFSGVPDRFSGSGSGTDFTLKISRVEAEDLGVYFCSQSTHVPWTFGGGTKLEIK
# B3: ADP2 (antibody, V domains shown)
# VH: EVKLVESGGGLVQPGGSLSLSCAASGFSFPDYYMSWVRQPPGKALEWLGFIRDSANGYTTEYIASVKGRFTFSRDNSQSILYLQMNALRAEDSATYYCARYSRYYGMDYWGQGTSVTVSS
# VL: SIVMTQTPKILLVSAGDRVTITCKASQTVNYDVAWYQQKPGQSPKPVIYFASNRYTGVPDRFTGSGFGTDFTFTISTVQAEDLAVYFCQQDYSAPWTFGGGTKLEIK
# notes: also called mADP2; mouse ADP2
# Columns and labels:
# [1] = target: T1, Recombinant human ADAM8 (rHuADAM8) …; test: ELISA, coated rHuADAM8
# Experimental: ELISAs were performed to assess the anti-ADAM8 antibodies for binding to rHuADAM8 during preparation and screening stages, using mouse sera, hybridoma supernatants and purified mouse and chimeric ADPs. ELISA plates (96-well) were coated with 1 μg/ml rHuADAM8 (Acro Biosystems, AD8-H5223) overnight at 4° C. Plates were washed three times with phosphate buffered saline (PBS) containing 0.05% Tween 20 (PBST) and blocked with 1% bovine serum albumin (BSA) in PBST at 37° C. for 1 hr. Plates were then exposed to sera, supernatants or purified antibodies for 1 hour at 37° C.
# For analysis of antibodies in the serum of mice, pre-bleed and test bleed samples in 6 dilutions ranging from 1:100 to 1:10,000,000 were tested. For analysis of antibodies in hybridoma clone and subclone supernatants, plates were subjected to 50 μl of supernatants. A test bleed sample (1:1000) and hybridoma culture medium were used as positive and negative controls, respectively. For purified antibody characterization, coated plates were incubated with eight increasing concentrations of each specific ADP ranging from 10⁻⁵ to 10³ nM. Normal mouse IgG (1 μg/ml) was used as a negative control to indicate the level of general non-specific binding and a test bleed sample (1:100) was used as a positive control. Samples were washed three times with PBST and incubated for 30 minutes at 37° C. with a secondary goat anti-mouse IgG (Fc specific)-HRP antibody (Sigma A0168, 1:5000). After washing three times with PBST, the signal was developed with addition of 100 μl of the horseradish peroxidase substrate 3,3′,5,5′-Tetramethylbenzidine (TMB) for 10 minutes at room temperature, followed by quenching with 50 μl 1N HCl. Signal was read in a 96-well spectrophotometer at an optical density (OD) of 450 nm.
# [2] = target: T1, Recombinant human ADAM8 (rHuADAM8) …; test: ELISA, coated recombinant ADAM8
# [3] = target: T2, Recombinant human ADAM15 (Sino …); test: ELISA, coated recombinant ADAM15
# [4] = target: T1, Recombinant human ADAM8 (rHuADAM8) …; test: Biacore SPR, rHuADAM8 as analyte
# Experimental: (§1) For Biacore assays, each ADP was used as the ligand in a multiple cycle kinetics method performed on a Biacore™ T200 surface plasmon resonance system (GE Healthcare Life Sciences) machine. ADP proteins were captured using anti-mouse Fc IgG attached to a dextran matrix, and rHuADAM8 (Acro Biosystems, AD8-H5223) added as the analyte at concentrations ranging from 3.75 nM to 200 nM. HBS-EP+ (10 mM HEPES, 0.15 M NaCl, 3 mM EDTA, 0.05% Surfactant P20) running buffer was passed at a flow rate of 30 μl/min and antigen injected at 30 μl/min. The association and dissociation phases were carried out for 180 s and 600 s, respectively. Surface regeneration was performed for 30 s at 30 μl/min of Glycine pH 1.5. Values for association rate constant (kₐ), dissociation rate constant (kd) and equilibrium dissociation constant (KD) were calculated through the Biacore™ T200 Software.
# [5] = target: T1, Recombinant human ADAM8 (rHuADAM8) …; test: Biacore SPR, ADP captured by anti-mouse Fc, rHuADAM8 as analyte
# Experimental: as §1
Binder,EC50 [1] [nM],OD 450nm [2] [OD450nm],OD 450nm [3] [OD450nm],binding result [3],Kd [4] [nM],koff [5] [s⁻¹],kon [5] [M⁻¹ s⁻¹]
B1,0.054,2.64,0.09,no binding (tested: 1 µg/ml),1.3,4.6e-05,35400
B2,0.049,2.31,0.17,no binding (tested: 1 µg/ml),18.3,0.000634,34700
B3,0.029,2.76,0.16,,3.34,0.000299,89500
